The target in assay [1] is T1, gp350 protein on gp350 expressing CHO cells (Epstein-Barr virus, UniProt P03200).
T1 construct: stably co-transfected with full-length pCAGGS-gp350/220 and pCI-puro vector; expressed in transfected cells; host or cells: CHO cells
In words: Flow cytometry of CHO cells stably expressing EBV gp350. It is filed as binding. The conditions noted are these: CHO cells stably expressing gp350 on the surface; native/conformational epitopes. As to the method: To assess the ability of purified anti-gp350 mAb to detect surface expression of EBV gp350 protein by flow cytometry, CHO cells that stably express EBV gp350 were harvested and stained with purified anti-gp350 (10 μg/ml), followed by AF488 goat anti-mouse IgG secondary antibody. Flow cytometric analysis was performed on a C-6 FC (BD Biosciences) and data was analyzed using FlowJo Cytometry Analysis software (FlowJo, LLC) as described (47). All the experiments were independently repeated three times.
These novel antibodies were analyzed by flow cytometric analysis for surface expression of gp350 protein on 10^6 CHO cells transfected with 1 μg of pCAGGS-gp350. gp350 expressing cells were resuspended in PBS, stained with anti-gp350 mAb, which detects the gp350 ED, followed by secondary Ab goat anti-mouse conjugated to AF488. Additionally, western blot analysis was conducted on untransfected and pCAGGS-gp350 transfected CHO lysate. Anti-gp350 mAb 72A1 was used as a positive control (1:100) and anti-gp350 hybridoma clone supernatants were used at 1:50, and anti-mouse secondary antibody was used at 1:2000.
Flow cytometric analysis of gp350 and gH/gL specificity was performed. CHO wild type cells and gp350 or gH/gL-expressing CHO cells were stained with primary antibodies, followed by secondary goat anti-mouse or anti-human conjugated to AF488. Unstained cells and cells stained with secondary goat anti-mouse or anti-human conjugated to AF488 alone, were used as negative controls.
Background: Flow cytometry measures light scatter and fluorescence of single cells or particles in a stream.

Assay [2] concerns the target T2, EBV gp350 stably expressed on CHO cells (Epstein-Barr virus, UniProt P03200).
T2 construct: stably co-transfected with full-length pCAGGS-gp350/220 and pCI-puro vector; expressed in transfected cells; host or cells: CHO cells
Put plainly: Epitope mapping by competitive cell binding assay with biotinylated mAbs. Put shortly: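 CHO cells stably expressing gp350 preincubated 2 h with unlabeled competitor mAbs (500, 250, 125, 67.5 μg/ml), then 2 h with 1 μg/ml biotinylated mAb, detected by anti-biotin AF488 flow cytometry. % inhibition = 100−(% positive cells with competitor/% without)×100; anti-KSHV gH/gL 54A1 as non-specific control.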

Assay [3] concerns the target T3, EBV gp350 20-mer linear peptides (gp350 regions) (Epstein-Barr virus, UniProt P03200).
T3 construct: purchased GenicBio; host or cells: chemical solid-phase synthesis
It is filed as binding. As for the experimental part:
Forty-five sequential 20-mer linear peptides, covering the whole sequence of gp350 (GenBank: NC_007605.1), with an exception of aa 862-881, were synthesized using a solid phase method and cleaved using a low-high hydrogen fluoride method by the GenicBio, as previously described (58).
The binding of anti-gp350 mAbs to 45 synthesized 20-mer sequential peptides covering the total length of gp350 was analyzed using indirect ELISA as described (58). Briefly, immunoplates were coated with 50 μl of 10 μg/ml EBV gp350 peptides (forty-five 20-mers) diluted in PBS and incubated overnight at 4° C.; 0.5 μg/ml recombinant EBV gp350 ectodomain protein was used as a positive control. After washing three times with washing buffer (PBS containing 0.05% (v/v) Tween 20), plates were blocked with 100 μl washing buffer containing 3% BSA (blocking buffer), incubated for 1 hour at room temperature, and washed as above. Ten μg/ml purified mAbs were added to each well in triplicate and incubated for 2 hours at room temperature. […] The plates were washed as described above, followed by incubation with goat anti-mouse IgG or goat anti-human IgG HRP-conjugated secondary antibody (1:2,000 diluted in PBS) at room temperature for 1 hour. The plates were washed again and the chromogenic substrate ABTS was added. The reaction was stopped using ABTS peroxidase stop solution. The absorbance was read at an optical density of 405 nm using an ELISA plate reader.
The peptide library, consisting of 20-mer peptides, covered the entire gp350 protein, with the exception of AA 862-881 (Table 9).
Purified recombinant gp350 ectodomain was used as a control to validate the binding activity for all of the antibodies used. The overall gp350 sequence was divided into nine different regions consisting of ˜100 AA (FIG. 7).

The test system of assay [4] is goat anti-mouse IgG. Put plainly: ELISA for reactivity to anti-mouse IgG (HAMA testing). It is filed as binding. The conditions noted are these: 10 μg/ml antibody on gp350-coated plates. The source says:
ClustalW alignment of heavy chain (i) and light chain (ii) variable region amino acid sequences. Murine 72A1 heavy chain and light chain AA sequences are represented by SEQ ID NOs: 178 and 179, respectively, and humanized 72A1 heavy chain and light chain AA sequences are represented by SEQ ID NOs: 180 and 181, respectively. Regions of identical sequence are represented by *. Regions of similarity are represented by :. […] FIG. 4C: ELISA determining the reactivity of humanized 72A1 to murine IgG. Soluble EBV gp350 protein was used as the target antigen at 0.5 μg/ml. […] Bound antibodies were detected using HRP-conjugated anti-mouse IgG or anti-human IgG (1:2,000). […] Unstained cells and cells stained with secondary goat anti-mouse or anti-human conjugated to AF488 alone were used as negative controls.
ELISA was performed to determine the reactivity of chimeric and humanized antibodies to murine IgG. Soluble EBV gp350 or gH/gL protein was used as the target antigen at 0.5 μg/ml. […] Bound antibodies were detected using HRP-conjugated anti-mouse IgG or anti-human IgG (1:2,000). […] To determine whether chimeric and humanized anti-gp350 retained the ability to recognize linear epitopes on gp350, lysate from CHO WT cells and CHO cell stably expressing gp350 were analyzed by western blot analysis.
A general note: An ELISA detects its analyte on a solid surface through an enzyme-linked reagent.

T2 sequence (P03200 whole entry): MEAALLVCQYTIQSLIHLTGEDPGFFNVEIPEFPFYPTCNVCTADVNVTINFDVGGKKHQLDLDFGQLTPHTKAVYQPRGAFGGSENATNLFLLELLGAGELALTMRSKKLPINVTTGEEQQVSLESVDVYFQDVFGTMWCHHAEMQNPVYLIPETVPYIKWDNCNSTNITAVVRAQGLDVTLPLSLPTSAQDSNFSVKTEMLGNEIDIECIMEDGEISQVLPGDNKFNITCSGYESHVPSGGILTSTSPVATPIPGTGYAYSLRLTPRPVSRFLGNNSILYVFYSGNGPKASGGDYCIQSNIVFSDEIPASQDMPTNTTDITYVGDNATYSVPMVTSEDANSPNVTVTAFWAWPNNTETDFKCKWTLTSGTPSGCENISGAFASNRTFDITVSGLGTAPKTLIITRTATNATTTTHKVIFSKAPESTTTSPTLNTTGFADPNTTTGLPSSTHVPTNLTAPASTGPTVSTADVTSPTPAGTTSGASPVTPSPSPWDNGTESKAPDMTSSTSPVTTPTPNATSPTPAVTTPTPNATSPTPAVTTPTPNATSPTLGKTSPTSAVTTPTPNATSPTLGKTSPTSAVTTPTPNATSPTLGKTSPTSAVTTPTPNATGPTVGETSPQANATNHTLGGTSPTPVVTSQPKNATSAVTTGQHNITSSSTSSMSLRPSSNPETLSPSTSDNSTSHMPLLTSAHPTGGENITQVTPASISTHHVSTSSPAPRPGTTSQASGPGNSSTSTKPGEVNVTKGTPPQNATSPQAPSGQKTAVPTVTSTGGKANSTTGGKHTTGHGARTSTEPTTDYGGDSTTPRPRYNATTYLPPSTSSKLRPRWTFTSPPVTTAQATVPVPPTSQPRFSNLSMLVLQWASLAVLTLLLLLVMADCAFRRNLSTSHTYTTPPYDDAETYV
T1 sequence (P03200 whole entry): as above
T3 sequence (P03200 142-161): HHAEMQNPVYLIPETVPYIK

B1: h72A1: humanized 72A1 IgG1; heavy and light chain SEQ ID NOs: 180 and 181 (antibody, V domains shown)
VH: EVQLVESGGGLVQPGGSLRLSCAASGSSFTDYTMNWMRQSPGKGLEWIGLINPYNGGTRYADSVKGRATLSLDKSKNTAYLQMNSLRAEDTAIYYCAGGLRRVNWFAYWGQGTLVTVSS
VL: DAQLTQSPILLSASVGDRVTITCRSSTGAVTTSNYANWVQERTNGSFRGLIGGTNNRVPGVPSRFSGSLSGDDATLTISSLQPEDEADYFCVLWHSNHWVFGAGTKVEIKR
In the case of B1, the “Flow cytometry (CHO Cells)” value in assay [1] is “recognized native epitopes of gp350 expressed on CHO cells surface, comparable to m72A1”. Further, the “% inhibition of biotinylated 54A1” value in assay [2] (1 μg/ml biotinylated 54A1, 500 μg/ml unlabeled mAb) turned out to be 0%. Moreover, the “% inhibition of biotinylated HB1” value in assay [2] (1 μg/ml biotinylated HB1, 500 μg/ml unlabeled mAb) is 87%. In assay [2] (1 μg/ml biotinylated HB5, 500 μg/ml unlabeled mAb), the “% inhibition of biotinylated HB5” value is 97%. The “% inhibition of biotinylated HB11” value in assay [2] (1 μg/ml biotinylated HB11, 500 μg/ml unlabeled mAb) is listed as 79%. Besides, in assay [2] (1 μg/ml biotinylated HB17, 500 μg/ml unlabeled mAb), the “% inhibition of biotinylated HB17” value was found to be 31%. For the same molecule, the “% inhibition of biotinylated HB20” value in assay [2] (1 μg/ml biotinylated HB20, 500 μg/ml unlabeled mAb) turned out to be 26%. In addition, in assay [2] (1 μg/ml biotinylated h72A1, 500 μg/ml unlabeled mAb), the “% inhibition of biotinylated h72A1” value is 98%. Also, the “antigen binding competition with biotinylated m72A1 (in words)” value in assay [2] (biotinylated m72A1 1 μg/ml, unlabeled mAbs 500-67.5 μg/ml) was “Antigen binding competition was observed”. The “% inhibition of biotinylated m72A1” value in assay [2] (cross-competition, 1 μg/ml biotinylated m72A1, 500 μg/ml unlabeled mAb) stood at 98%. The “% inhibition of biotinylated nAbs (biotinylated m72A1)” value in assay [2] (unlabeled mAb 67.5 μg/ml, biotinylated m72A1 1 μg/ml) came to 89%; in assay [2] (unlabeled mAb 125 μg/ml, biotinylated m72A1 1 μg/ml), 93%; in assay [2] (unlabeled mAb 250 μg/ml, biotinylated m72A1 1 μg/ml) it was 95%; in assay [2] (unlabeled mAb 500 μg/ml, biotinylated m72A1 1 μg/ml) it was 98%. The “recognition of gp350 peptides of the principal neutralizing epitope (142-161)” value in assay [3] is reported as “recognized both native gp350 as well as gp350 peptides that constitute the principal gp350 neutralizing epitope (142-161)”. In addition, the “reactivity to goat anti-mouse IgG above the background (1×PBS)” value in assay [4] is listed as “did not react at all”.
